Data set [1] can be described thus: Thermal stability (T50) at varying CaCl2 concentrations.
Description: Thermal stability was measured, using varying CaCl2concentrations in the standard assay buffer (20 mM Na acetate, pH 5.3, 0.01% Triton X-100, 0.5% isopropanol, 62.5 mM NaCl). T50 is the temperature of incubation at which 50 percent of the initial proteolytic activity is lost during a 30 minutes incubation.
Data set [2] can be described thus: First order thermal inactivation of TLP-ste variants at 75° C. in 5 mM or 0.2 mM CaCl2.
In data set [3] the test system is casein. The data set can be described thus: Specific activity with casein as substrate at 37° C. The class given is biochemical. The following applies: casein 0.8%, pH 7.5, 5 mM CaCl2. Here is the method:
(§1) Specific activities for TLP-ste and the 8-fold mutant were determined using casein (0.8%) as a substrate in 50 mM Tris-HCl (pH 7.5), 5 mM CaCl2 at 37° C. […] (pH 7.0), 5 mM CaCl2, 5% or 1% DMSO, 0.5% isopropanol, 0.01% Triton X-100, 50 mM NaCl, with […] of substrate, by measuring the decrease in absorption at 345 nm (Î345=−317 M^−1·cm^−1). Stock solutions of the furylacryloylated dipeptides, (Sigma, St. Louis, […].) were prepared by dissolving 3-(-2-furylacryloyl)-L-glycyl-L-leucine amide (FaGLa) and 3-(-2-furylacryloyl)-L-alanyl-L-phenylalanine amide (FaAFa) in DMSO. The kcat/Km ratios of the enzymes were determined by varying the enzyme concentrations (over a 50 fold range) under pseudo-first order conditions by measuring the initial activity, essentially according to the method described by Feder^30. The Ki for phosphoramidon (N-[a-L-rhamnopyrano-syl-oxyhydroxyphophinyl]-L-leucyl-L-tryptophan) was determined by a 30 minute preincubation of a 100 pM protease solution with varying concentrations of the inhibitor (10^−8 to 10^−3 M), in 50 mM MOPS (pH 7.0), 5 mM CaCl2, 50 mM NaCl, prior to the addition of the furylacryloated substrate. For determination of the Ki FaAFa was used as the substrate. Since the Km of the substrate for the enzyme is higher than the concentration used, IC50 values were taken to be equal to Ki values. The optimum temperature for activity was determined by incubating proteases with casein (0.8%) in 50 mM Tris-HCl (pH 7.5), 5 mM CaCl2, at different temperatures for 30 minutes, after which the amount of released peptides, indicative for activity, was measured^11.

In data set [4] the test system is casein. Put plainly: Optimum temperature for activity with casein. It counts as biochemical. The following applies: casein 0.8%, 30 minutes. Here is the method: as §1
The format of data set [5] is physicochemical. The following applies: buffer, pH 5.3. As to the method:
Stabilities of TLPs were determined at different temperatures. Shown are the first-order inactivation curves for TLP-ste incubated at 80° C. (Δ) and 90° C. (+), thermolysin at 90° C. (Δ), and the 8-fold mutant at 100° C. (●), respectively. […] Samples, taken at the various time points, were quickly cooled on ice (15 s) and transferred to 50° C. to prevent cold denaturation. Residual activity was determined using casein (0.8%) as a substrate in 50 mM TrisHCl (pH 7.5), 5 mM CaCl2 as described previously (Eijsink, V. G. H., Veltman, O. R., Aukema, W., Vriend, G. & Venema, G. Nature Struct. Biol. 2, 374-379 (1995)).

The nature of data set [6]: Effect of denaturing agents on protease activity (FaGLa, 50° C.). The class given is biochemical. As to the method:
Protease activities were determined in 50 mM MOPS (pH 7.0), 5 mM CaCl2, 50 mM NaCl, 0.01% Triton X-100, 0.5% isopropanol, using 100 μM FaGLa (3-(-2-furylacryloyl)-L-glycyl-L-leucine amide) as a substrate at 50° C. Enzymes and denaturing agents were preincubated in the reaction mixture at 50° C. for 15 minutes prior to the addition of the substrate. The reaction was followed by measuring the change in absorbance at 345 nm. […] Activities are expressed as percentage of the activity in the absence of denaturant.

Data set [7] deals with α-amylase from Bacillus licheniformis. Put plainly: Hydrolysis of protease resistant α-amylase (SDS-PAGE). The following applies: 60 minutes. The class given is biochemical. Here is the method:
As an example of the enzymatic activity of the 8-fold mutant we tested the hydrolysis of protease resistant α-amylase from Bacillus licheniformis by the 8-fold mutant. B. licheniformis α-amylase (1 mg/ml) in 50 mM MOPS, pH 7.0, 5 mM CaCl2, 0.01% Triton X-100 was incubated with purified TLP-ste (1 μg/ml), the 8-fold mutant or without protease for 60 minutes at the temperature indicated. The reaction volume was 500 μL. […] Precipitates (only observed in the 100° C. samples) were collected by centrifugation and redissolved in 500 μL 6 M Urea. Both supernatants and redissolved precipitates were subjected to standard SDS-PAGE, including pre-treatment with sample loading buffer (5 minutes at 100° C.). The samples were identical in size (20 μL supernatant and 20 μL dissolved precipitate). Gels were stained with Coomassie-brilliant blue.

Where [8] appears, read: 0.2 mM CaCl2, 30 minutes incubation.
The mark [9] stands for this setting: 0.5 mM CaCl2, 30 minutes incubation.
Where [10] appears, read: 2.5 mM CaCl2, 30 minutes incubation.
[11] abbreviates: 5.0 mM CaCl2, 30 minutes incubation.
The mark [12] stands for this setting: 7.5 mM CaCl2, 30 minutes incubation.
Setting [13] is: 12.5 mM CaCl2, 30 minutes incubation.

Where a chain is given by its changes, count along the chain named. Numbers in names are those of the source. Where only a bound is given, the exact number is not on record here.

B1: D57S: TLP-ste variant with Asp57 of the Ca3 site replaced by Ser (protein, listed as Bacillus sp.)
chain: VAGASTVGVGRGVLGDQKYINTTYSGYYYLQDNTRGSGIFTYDGRNRTVLPGSLWTSGDNQFTASYDAAAVDAHYYAGVVYDYYKNVHGRLSYDGSNAAIRSTVHYGRGYNNAFWNGSQMVYGDGDGQTFLPFSGGIDVVGHELTHAVTDYTAGLVYQNESGAINEAMSDIFGTLVEFYANRNPDWEIGEDIYTPGVAGDALRSMSDPAKYGDPDHYSKRYTGTQDNGGVHTNSGIINKAAYLLSQGGVHYGVSVNGIGRDKMGKIFYRALVYYLTPTSNFSQLRAACVQAAADLYGSTSQEVNSVKQAFNAVGVY
On to B1, for which, in data set [1], the “dependence of stability on the calcium concentration” value is on record as “reduced this calcium dependence”. For the same molecule, the T50 in data set [1] (setting [8]) turned out to be 65.9 °C; in data set [1] (setting [9]) it was 67.3 °C; in data set [1] (setting [10]), 67.5 °C; in data set [1] (setting [11]), 68.2 °C; in data set [1] (setting [12]), 68.8 °C; in data set [1] (setting [13]), 69.4 °C. Further, the “stability effect of the mutation on the wild-type enzyme” value in data set [1] (lowest calcium concentration tested) was “slightly stabilised”. Besides, in data set [2], the “Half-life ratio 5 mM/0.2 mM” value turned out to be 1.5.

B2: D57S-T63F-A69P: TLP-ste variant combining D57S with T63F-A69P (protein, listed as Bacillus sp.)
chain: B1 chain with T63F, A69P
In the case of B2, in data set [1], the “dependence of stability on the calcium concentration” value was “largely independent of the calcium concentration”. The T50 in data set [1] (setting [8]) was found to be 74.6 °C; in data set [1] (setting [9]), 75.4 °C; in data set [1] (setting [10]), 76.2 °C; in data set [1] (setting [11]) it was 76.5 °C; in data set [1] (setting [12]), 76.7 °C; in data set [1] (setting [13]) it was 77.2 °C. For the same molecule, the “stability compared with the wild-type enzyme” value in data set [1] (at lower calcium concentrations) is on record as “considerably more stable than the wild-type enzyme”. Also, the “Half-life ratio 5 mM/0.2 mM” value in data set [2] is 1.5.

B3: T63F-A69P: TLP-ste variant with the combined stabilising T63F-A69P mutation (protein, listed as Bacillus sp.)
chain: B1 chain with S57D, T63F, A69P
As for B3, the “dependence of stability on the calcium concentration” value in data set [1] is recorded as “depended strongly on the calcium concentration”. Besides, the T50 in data set [1] (setting [8]) worked out at 77.8 °C; in data set [1] (setting [9]), 80.9 °C; in data set [1] (setting [10]) it was 86.6 °C; in data set [1] (setting [11]), 87.2 °C; in data set [1] (setting [12]) it was 89.7 °C; in data set [1] (setting [13]) it was 90.2 °C. The “Half-life ratio 5 mM/0.2 mM” value in data set [2] turned out to be 19.

B4: TLP-ste: broad-specificity metalloprotease (thermolysin-like protease) produced by Bacillus stearothermophilus CU21, SEQUENCE ID No. 1 (protein)
chain: VAGASTVGVGRGVLGDQKYINTTYSSYYGYYYLQDNTRGSGIFTYDGRNRTVLPGSLWTDGDNQFTASYDAAAVDAHYYAGVVYDYYKNVHGRLSYDGSNAAIRSTVHYGRGYNNAFWNGSQMVYGDGDGQTFLPFSGGIDVVGHELTHAVTDYTAGLVYQNESGAINEAMSDIFGTLVEFYANRNPDWEIGEDIYTPGVAGDALRSMSDPAKYGDPDHYSKRYTGTQDNGGVHTNSGIINKAAYLLSQGGVHYGVSVNGIGRDKMGKIFYRALVYYLTPTSNFSQLRAACVQAAADLYGSTSQEVNSVKQAFNAVGVY
B4: in the data set with casein [3], the Specific activity casein was 3.5 ± 0.7 (U/mg) × 10^−3. For the same molecule, the “Topt (optimum temperature for activity)” value in the data set on casein [4] turned out to be 74 °C. For the same molecule, the “half-life 80° C.” value in data set [5] is 17.5 min. Also, the “half-life 90° C.” value in data set [5] is <2 min. In data set [5], the “half-life 100° C.” value is <0.5 min. For the same molecule, the relative activity was 100% in data set [6] (GndHCl 0 M); 99% in data set [6] (GndHCl 1.0 M); 62% in data set [6] (GndHCl 2.0 M); 0% in data set [6] (GndHCl 3.0 M); 0% in data set [6] (GndHCl 4.0 M); 0% in data set [6] (GndHCl 5.0 M). The relative activity in data set [6] (GndHCl 5.5 M) was 0%; in data set [6] (GndHCl 6.0 M) it was 0%; in data set [6] (SDS 0 % w/v), 100%; in data set [6] (SDS 0.25 % w/v), 72%; in data set [6] (SDS 0.5 % w/v), 37%; in data set [6] (SDS 0.75 % w/v), 9.6%. The relative activity in data set [6] (SDS 1.0 % w/v) was 0%; in data set [6] (SDS 1.25 % w/v) it was 0%; in data set [6] (SDS 1.5 % w/v) it was 0%; in data set [6] (SDS 2.0 % w/v), 0%; in data set [6] (Urea 0 M), 100%; in data set [6] (Urea 0.5 M) it was 96%. Besides, the relative activity in data set [6] (Urea 1.0 M) worked out at 87%; in data set [6] (Urea 2.0 M) it was 75%; in data set [6] (Urea 3.0 M) it was 3%; in data set [6] (Urea 4.0 M) it was 0%; in data set [6] (Urea 5.0 M), 0%; in data set [6] (Urea 7.5 M), 0%. Besides, the “degradation of B. licheniformis α-amylase” value in data set [7] (80° C. and lower) is on record as “No significant degradation”. Also, the “hydrolysis of B. licheniformis α-amylase” value in data set [7] (100° C.) was “no hydrolysis had occurred”. Besides, the T50 in data set [1] (setting [8]) was 65.5 °C; in data set [1] (setting [9]), 67.5 °C; in data set [1] (setting [10]), 72.9 °C; in data set [1] (setting [11]), 75.2 °C; in data set [1] (setting [12]) it was 77.0 °C; in data set [1] (setting [13]), 77.9 °C. Further, in data set [2], the “Half-life ratio 5 mM/0.2 mM” value stood at 12.

B5: TLN: thermolysin, protease secreted by Bacillus thermoproteolyticus, SEQUENCE ID No. 2 (protein, UniProt P00800 233-548, looked up)
Thermolysin: ITGTSTVGVGRGVLGDQKNINTTYSTYYYLQDNTRGNGIFTYDAKYRTTLPGSLWADADNQFFASYDAPAVDAHYYAGVTYDYYKNVHNRLSYDGNNAAIRSSVHYSQGYNNAFWNGSQMVYGDGDGQTFIPLSGGIDVVAHELTHAVTDYTAGLIYQNESGAINEAISDIFGTLVEFYANKNPDWEIGEDVYTPGISGDSLRSMSDPAKYGDPDHYSKRYTGTQDNGGVHINSGIINKAAYLISQGGTHYGVSVVGIGRDKLGKIFYRALTQYLTPTSNFSQLRAAAVQSATDLYGSTSQEVASVKQAFDAVGVK
On to B5, for which the “Topt (optimum temperature for activity)” value with casein [4] was 77 °C. For the same molecule, in data set [5], the “half-life 80° C.” value was >200 min, the “half-life 90° C.” value came to 12.5 min and the “half-life 100° C.” value was <2 min.

The record behind these values is patent publication US6518054B1, “Metallo-endopeptidases” (Rijksuniverstteit Te Groningen, priority 1997, dated 2003).
